Reference: patent US20040049009A1, “Methods for improving the antagonistic/agonistic properties of peptidic antagonists/agonists of the corticotropin-releasing factor receptor (crfr)” (priority 2000, published 2004)
pIC50: −log10 of the molar value.

What was measured:
[1] = biological target: T1, rat CRF binding protein C-terminally fused with a His6 sequence (rat) (UniProt P24388); test: SPA competition with 0.1 nM [125I-Tyr0]h/rCRF, His-tagged rCRFBP; 95% CI (0.60-1.3)
T1 sequence: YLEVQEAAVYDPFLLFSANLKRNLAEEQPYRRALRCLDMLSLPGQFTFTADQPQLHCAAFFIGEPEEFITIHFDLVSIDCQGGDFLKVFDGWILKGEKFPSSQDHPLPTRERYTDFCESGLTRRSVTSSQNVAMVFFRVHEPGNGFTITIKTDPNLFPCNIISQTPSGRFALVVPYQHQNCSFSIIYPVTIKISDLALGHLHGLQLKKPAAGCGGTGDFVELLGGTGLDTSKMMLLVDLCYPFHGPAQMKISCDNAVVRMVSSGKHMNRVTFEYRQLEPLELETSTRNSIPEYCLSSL

[2] = biological target: mouse CRF receptor, type 2β (mouse) (UniProt Q60748)
[3] = biological target: rat CRF receptor, type 1 (rat) (UniProt P35353); test: SPA competition with 0.05 nM [125I-Tyr0]h/rCRF, HEK-293 membranes; 95% CI (0.44-0.79)
[4] = biological target: T1, rat CRF binding protein C-terminally fused with a His6 sequence (rat); test: SPA competition with 0.1 nM [125I-Tyr0]h/rCRF, His-tagged rCRFBP; 95% CI (70-90)
[5] = biological target: mouse CRF receptor, type 2β (mouse) (UniProt Q60748); test: SPA competition with 0.05 nM [125I-Tyr0]Svg, HEK-293 membranes; 95% CI (15-18)
[6] = biological target: rat CRF receptor, type 1 (rat) (UniProt P35353)
[7] = biological target: mouse CRF receptor, type 2β (mouse) (UniProt Q60748); test: SPA competition with 0.05 nM [125I-Tyr0]Svg, HEK-293 membranes; 95% CI (0.24-1.36)
[8] = biological target: T1, rat CRF binding protein C-terminally fused with a His6 sequence (rat); test: SPA competition with 0.1 nM [125I-Tyr0]h/rCRF, His-tagged rCRFBP; 95% CI (76-104)
[9] = biological target: mouse CRF receptor, type 2β (mouse) (UniProt Q60748); test: SPA competition with 0.05 nM [125I-Tyr0]Svg, HEK-293 membranes; 95% CI (110-300)
[10] = biological target: rat CRF receptor, type 1 (rat) (UniProt P35353); test: SPA competition with 0.05 nM [125I-Tyr0]h/rCRF, HEK-293 membranes; 95% CI (0.65-1.4)
Target sequence in this assay (P35353 24-415): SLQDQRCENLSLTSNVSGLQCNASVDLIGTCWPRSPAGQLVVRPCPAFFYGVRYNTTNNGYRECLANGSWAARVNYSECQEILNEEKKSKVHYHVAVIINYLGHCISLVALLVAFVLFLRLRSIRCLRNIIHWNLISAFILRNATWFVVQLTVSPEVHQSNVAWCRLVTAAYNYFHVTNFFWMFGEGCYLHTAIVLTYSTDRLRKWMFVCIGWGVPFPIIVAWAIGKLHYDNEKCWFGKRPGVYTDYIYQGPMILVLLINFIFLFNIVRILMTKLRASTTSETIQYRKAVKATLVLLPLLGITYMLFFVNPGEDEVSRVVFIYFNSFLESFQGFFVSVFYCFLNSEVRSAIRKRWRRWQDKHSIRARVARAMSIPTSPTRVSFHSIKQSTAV

[11] = biological target: T1, rat CRF binding protein C-terminally fused with a His6 sequence (rat); test: SPA competition with 0.1 nM [125I-Tyr0]h/rCRF, His-tagged rCRFBP; 95% CI (0.9-1.0)

ovine corticotropin-releasing factor (ligand), sequence (P01142 148-188): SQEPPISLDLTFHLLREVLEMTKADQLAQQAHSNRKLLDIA

Substance | Rel. intrinsic activity [%] [2] [%] | Rel. potency of antagonist [%] [2] [%] | Rel. intrinsic activity [%] [6] [%] | Rel. potency of antagonist [%] [6] [%] | other results
[Ala^21]Svg (from UniProt P01144) (peptide) | – | – | – | – | pIC50 [1]: 9.03
[Glu^11,16]Ast (peptide) | 1 | 97 | – | – | –
[Glu^22]h/rCRF (from UniProt P06850) (peptide) | – | – | – | – | pIC50 [3]: 9.21; pIC50 [4]: 7.10; pIC50 [5]: 7.80
ovine corticotropin-releasing factor (ligand) | – | – | – | – | pIC50 [9]: 6.70; pIC50 [10]: 9.00
α-helical CRF^9-41 (peptide) | 1.4 | 97 | 19 | 14 | pIC50 [11]: 9.00

Continued, in another order:

Rel. intrinsic activity [%] [2] [%] | Rel. potency of antagonist [%] [2] [%] | Rel. intrinsic activity [%] [6] [%] | Rel. potency of antagonist [%] [6] [%] | Substance | other results
1 | 99 | 6.5 | 2 | anti-sauvagine-30 (peptide) | pIC50 [7]: 9.52
1.1 | 99 | 9.8 | 86 | astressin (peptide) | pIC50 [8]: 7.05
